# Target: the molecule itself
# Assay: crystal structure
protein,measurement,value
"Two-pore channel TPC1 from Arabidopsis thaliana (AtTPC1) (natural protein, UniProt Q94KI8 1-733, looked up) MEDPLIGRDSLGGGGTDRVRRSEAITHGTPFQKAAALVDLAEDGIGLPVEILDQSSFGESARYYFIFTRLDLIWSLNYFALLFLNFFEQPLWCEKNPKPSCKDRDYYYLGELPYLTNAESIIYEVITLAILLVHTFFPISYEGSRIFWTSRLNLVKVACVVILFVDVLVDFLYLSPLAFDFLPFRIAPYVRVIIFILSIRELRDTLVLLSGMLGTYLNILALWMLFLLFASWIAFVMFEDTQQGLTVFTSYGATLYQMFILFTTSNNPDVWIPAYKSSRWSSVFFVLYVLIGVYFVTNLILAVVYDSFKEQLAKQVSGMDQMKRRMLEKAFGLIDSDKNGEIDKNQCIKLFEQLTNYRTLPKISKEEFGLIFDELDDTRDFKINKDEFADLCQAIALRFQKEEVPSLFEHFPQIYHSALSQQLRAFVRSPNFGYAISFILIINFIAVVVETTLDIEESSAQKPWQVAEFVFGWIYVLEMALKIYTYGFENYWREGANRFDFLVTWVIVIGETATFITPDENTFFSNGEWIRYLLLARMLRLIRLLMNVQRYRAFIATFITLIPSLMPYLGTIFCVLCIYCSIGVQVFGGLVNAGNKKLFETELAEDDYLLFNFNDYPNGMVTLFNLLVMGNWQVWMESYKDLTGTWWSITYFVSFYVITILLLLNLVVAFVLEAFFTELDLEEEEKCQGQDSQEKRNRRRSAGSKSRSQRVDTLLHHMLGDELSKPECSTSDT",stoichiometry N,2

# Reference: article PMC4841471 (Nature, 2015)
